According to PMC8196007, “HSP-90/kinase complexes are stabilized by the large PPIase FKB-6” (Scientific Reports, 2021):

B1: nematode CDC-37 (natural protein, C. elegans, UniProt O02108 1-370, looked up)
chain: MPIDYSKWKDIEVSDDEDDTHPNIDTPSLFRWRHQARLERMAEKKMEQEKIDKEKGTTSKKMEELEKKLAAADVTDKSDIQKQIDEVKAQEEAWRKKEAELEEKERLEPWNVDTIGHEAFSTSRINKITEKKPQAPKTDEEDTHAMSTFFETHESLLEKMAVLKNGAKSTELFLAEHPHMASEYTANWLTIEALNAAIDFNEEKMKTMAEQCIIIQYLLELSKSLNAVATNTTVQKQFFKKFEAAEPVYMKHYQDEVKAFEDRLRTRAQTKRDAAMEEAEAEEKAERMKSAPGGIDPQEVFEQLPEEMRKCFEAHDIEALKGVAQKMDEEVFKYHFDRCIASGLWVPGKADDDDDDEEAAPAEEEPTTSS
notes: CDC-37, C. elegans (nematode) Hsp90 cochaperone; source: E. coli BL21 (DE3) cod+, purified (HisTrap, gel filtration)
B2: FKB-6 (full-length) (natural protein, C. elegans, UniProt O45418 1-431, looked up)
chain: MSGEKIDITPKKDGGVLKLIKKEGQGVVKPTTGTTVKVHYVGTLENGTKFDSSRDRGDQFSFNLGRGNVIKGWDLGVATMTKGEVAEFTIRSDYGYGDAGSPPKIPGGATLIFEVELFEWSAEDISPDRDGTILRTIIVEGSKNSFPNDTSKVLAHCVGTYQGTEFYNREVNFHIGEGSEEGLPEGVERALRRFQLGEKSKIEIRGHKYTYGNSPPAGSNIPVNATLEFTIFLKEFEKVPATWEMTAEEKLDAAKQAKDRGTMYLQKGNLKLAYNKYKRAEEVLEYEKSTDPEKMAERETILNGAYLNLSLVCSKQNEQLECIKWCDKVLETKPGNVKALYRKATALLTMNEVRDAMKLFEKIVEVEPENKAAAQQIIVCRNTIREQNERDKKRFKNLFAKISTEEDKPTNTVEDEDEIVASTSGSSTSNA
notes: FKB-6, C. elegans large PPIase, homolog of human Fkbp51/Fkbp52; also called large PPIase FKB-6; source: E. coli BL21 (DE3) cod+, purified (HisTrap, gel filtration)

Experiments:
FKB-6 (full-length) = molecular target: B2; assay: native MS; LILBID-MS of the BS3-crosslinked sample and of non-crosslinked mixtures, sB-Raf:CDC-37:FKB-6:HSP-90 = 1:1:1:1 or as indicated; 25 mM Tris, 20 mM KCl, pH 7.5; settings: both partners purified
nematode HSP-90 = molecular target: T1, nematode HSP-90 (C. elegans, UniProt Q18688 1-702); assay: as above; settings: both partners purified
T1 construct: HSP-90, C. elegans (nematode) Hsp90; also called HSP-90 dimer; source: E. coli BL21 (DE3) cod+, purified (HisTrap, gel filtration)

binding result (FKB-6 (full-length))	binding result (nematode HSP-90)	Binder
binds	binds	B1
–	binds	B2
